Measurements: publication doi:10.1101/2024.04.09.588654 (bioRxiv, 2024)

Target: Phosphatidylinositol 4-kinase alpha (PI4KA), subunit of the PI4KA complex (human, UniProt P42356 1-2102)
Experiment: cryo-EM structure

B1: TTC7B, subunit of the PI4KA complex (natural protein)
chain: MATKKAGSRLETEIERCRSECQWERIPELVKQLSAKLIANDDMAELLLGESKLEQYLKEHPLRQGASPRGPKPQLTEVRKHLTAALDRGNLKSEFLQESNLIMAKLNYVEGDYKEALNIYARVGLDDLPLTAVPPYRLRVIAEAYATKGLCLEKLPISSSTSNLHVDREQDVITCYEKAGDIALLYLQEIERVILSNIQNRSPKPGPAPHDQELGFFLETGLQRAHVLYFKNGNLTRGVGRFRELLRAVETRTTQNLRMTIARQLAEILLRGMCEQSYWNPLEDPPCQSPLDDPLRKGANTKTYTLTRRARVYSGENIFCPQENTEEALLLLLISESMANRDAVLSRIPEHKSDRLISLQSASVVYDLLTIALGRRGQYEMLSECLERAMKFAFEEFHLWYQFALSLMAAGKSARAVKVLKECIRLKPDDATIPLLAAKLCMGSLHWLEEAEKFAKTVVDVGEKTSEFKAKGYLALGLTYSLQATDASLRGMQEVLQRKALLAFQRAHSLSPTDHQAAFYLALQLAISRQIPEALGYVRQALQLQGDDANSLHLLALLLSAQKHYHDALNIIDMALSEYPENFILLFSKVKLQSLCRGPDEALLTCKHMLQIWKSCYNLTNPSDSGRGSSLLDRTIADRRQLNTITLPDFSDPETGSVHATSVAASRVEQALSEVASSLQSSAPKQGPLHPWMTLAQIWLHAAEVYIGIGKPAEATACTQEAANLFPMSHNVLYMRGQIAELRGSMDEARRWYEEALAISPTHVKSMQRLALILHQLGRYSLAEKILRDAVQVNSTAHEVWNGLGEVLQAQGNDAAATECFLTALELEASSPAVPFTIIPRVL
binding result: binds
